{
  "source": "paper PMC9284671",
  "about": "(Structure (London, England : 1993), 2022)",
  "biological_target": "T1, short SARS-CoV-2 peptide (10 residues) of the ITC (SARS-CoV-2)",
  "T1 chain": "FKEELDKYFK",
  "test": "ITC",
  "data": [
    {"binder": "WS6 (monoclonal antibody, IgG) (antibody, V domains shown) VH: EVQFQQSGTVLARPGASVKMSCKASGYTFTNYWIHWVKQRPGQGLEYIGGTYPGNGDTTYNQKFKGKAKVTAVTPTSTAYMDLSSLTNEDSAVYYCTRTGSYFDYWGQGTTLTVSS VL: QIVLTQSPAIMSASPGEKVTISCSATSSVSYIYWYQQRPGSSPKPWIYRTSNLASGVPVRFSGSGSGTSYSLTISNMEAEDAATYYCQQYQSYPPTFGAGTKLELK", "values": [
      {"measurement": "Kd", "value": 22, "unit": "nM"}
    ]}
  ]
}
